Drawing on publication PMC4252486, this text covers Kd for one molecule.

What all share (assay): fluorescence anisotropy
On the technique in general: Fluorescence polarisation rises when a labelled molecule tumbles more slowly, as on binding a larger partner.

One data set concerns the target NCp15 WT (NCp7-SP2-p6) (HIV-1 NL4-3, UniProt P12493 378-500).
In the next data set the target is NCp9 (NCp7-SP2) (HIV-1 NL4-3, UniProt P12493 378-448).
Data set [1] has as its target NCp7 (mature nucleocapsid) (HIV-1 NL4-3, UniProt P12493 378-432).

In general, Kd refers to the constant that tells how readily two partners part at equilibrium. A low value points to a tighter complex. As to AGCTGCTTTTTGCCTGTACT (ssDNA) [JL936 (20-nt ssDNA)], the dissociation constant Kd turned out to be 151 nM in the data set with NCp15 WT (NCp7-SP2-p6), 45 nM with NCp9 (NCp7-SP2) and 176 nM in data set [1].
